Data from patent publication US7214663B2, “Tripeptide prodrug compounds” (Medarex, Inc., priority 2001, dated 2007).
Where two headings read alike, the source gives them in different places.

How the values were obtained:
[1] = test system: purified Porcine Kidney CD10; experiment: Hydrolysis by purified CD10; format: biochemical
Method: Reaction products were analyzed by HPLC with fluorescence detection. Rates were essentially linear over the incubation period. The observed product was Leu-doxorubicin.

[2] = test system: PC-3 (prostate carcinoma) cells; details: PC-3, 48 hours, 3H-thymidine incorporation
Method: (§1) Adherent cells, LNCaP (prostate carcinoma), HT-29 (colon carcinoma) and PC-3 (prostate carcinoma), were cultured in DMEM media containing 10% heat inactivated fetal calf serum (FCS). On the day of the study the cells were detached from the plate with a trypsin solution. The collected cells were washed and resuspended at a concentration of 0.25×10^6 cells/ml in DMEM containing 10% FCS. 100 μl of cell suspension were added to 96 well plates and the plates were incubated for 3 hours to allow the cells to adhere. […] The plates were then incubated for 24 hours, pulsed with 10 μl of a 100 μCi/ml ^3H-thymidine and incubated for an additional 24 hours (total incubation time 48 hours). The plates were harvested using a 96 well Harvester (Packard Instruments) and counted on a Packard Top Count Counter. Four parameter logistic curves were fitted to the ^3H-thymidine incorporation as a function of drug molarity using Prism software to determine IC50 values.
(§2) Prostate carcinoma cells, LNCaP and PC-3 cells or colon carcinoma cells HT-29, were incubated with increasing concentration of the indicated compounds for 48 hours and cellular proliferation was measured using the ^3H-thymidine assay.

[3] = test system: LNCaP (prostate carcinoma) cells; details: 48 hours, 3H-thymidine incorporation
Method: as §1, §2

[4] = test system: HT-29 (colon carcinoma) cells; details: HT29, 48 hours, 3H-thymidine incorporation
Method: as §1, §2

normal ICR mice = experiment: Single dose Maximum Tolerated Dose (SD-MTD) study, 49 days, ICR mice (Examples 5 and 6)
Method: In a second single dose Maximum Tolerated Dose (SD-MTD) study, groups of five normal ICR mice were administered intravenous bolus doses of Suc-Leu-Ala-Leu-Dox. The mice were observed daily for 49 days and body weights measured twice weekly.
In a second single dose Maximum Tolerated Dose (SD-MTD) study, groups of five normal ICR mice were administered intravenous bolus doses of Suc-Leu-Ala-Gly-Dox. The mice were observed daily for 49 days and body weights measured twice weekly.

[5] = test system: healthy young female normal mice
[6] = Metabolism and clearance of Suc-Leu-Ala-Leu-Dox in mice (plasma, urine); format: in vivo, mouse; details: after single intravenous 117 mg/kg Suc-Leu-Ala-Leu-Dox
Method: Plasma samples of 100 μl were transferred to microcentrifuge tubes (1.5 mL) and an internal standard of daunorubicin (20 μL at 0.5 mg/ml) was added together with acetonitrile (400 μl). The tubes were capped and briefly vortexed followed by centrifugation at 14,000 rpm. 420 μl from each tube was removed and dried in vacuo. Each sample was reconstituted in 65 μl 20 mM aqueous ammonium formate (AF) pH 4.5 buffer containing acetonitrile (20%) prior to analysis by reverse phase liquid chromatography in combination with tandem mass spectrometry (LC MS/MS).
Urine was collected at 2 and 24 hours post administration from pairs of mice in metabolic cages. Urine samples were diluted with AF buffer containing acetonitrile (20%) to give a target analyte concentration within the practical range of the LC MS/MS assay. 30 μl of each diluted sample was placed in a micro centrifuge tube (1.5 ml) and an internal standard of daunorubicin (20 μL at 0.5 mg/ml) was added together with 50 μl of AF buffer containing acetonitrile (20%). Each sample was then analyzed by LC MS/MS.
An Agilent HP1100 HPLC with DAD detector and Chemstation software was coupled to a PE Sciex API 365 mass spectrometer with an electrospray ion source. HPLC was performed on a TSK-Gel Super ODS, […], 4.6×50 mm (TosoHaas) reversed phase column equipped with a […] C18 guard disc (Higgins Analytical) and stainless steel frit (Upchurch Scientific). Chromatography was performed at room temperature. The flow rate was 0.5 ml/min. Injection volume was 50 μl. Gradient elution was performed using a mobile phase of AF buffer with increasing amounts of acetonitrile. The API 365 was operated at 365° C. in a multiple reaction monitoring mode, set to monitor specific analyte parent-daughter ion pairs. Integration of chromatograms was performed by MacQuan software (PE Sciex) and quantitation of each analyte obtained by comparison to previously obtained calibration curves. Daunorubicin was used as an internal standard in all cases.

[7] = first experiment, as first stated
[8] = recalculation (about 47% active compound)

## COc1cccc2c1C(=O)c1c(O)c3c(c(O)c1C2=O)C[C@@](O)(C(=O)CO)C[C@@H]3O[C@H]1C[C@H](NC(=O)[C@H](CC(C)C)NC(=O)[C@H](C)NC(=O)[C@H](CC(C)C)NC(=O)CCC(=O)O)[C@H](O)[C@H](C)O1 [Suc-Leu-Ala-Leu-Dox]
[1]; 12.5 μg/mL, 37° C., pH 7.4, up to 10 hr
  % hydrolysis/10 hr: 8.3%
[1]; standard Suc-βAla-Leu-Ala-Leu-Dox
  Fraction hydrolyzed relative to standard: 0.75
[2]
  IC50: 50 µM
[3]
  IC50: ~1 µM
[4]
  IC50: 36 µM
Normal ICR mice; any dose level
  acute toxicity, within 24 hours: no acute toxicity
Normal ICR mice; doxorubicin equivalent, intravenous bolus, ICR mice, Day 49
  SD-MTD (mg/kg Dox =): 42 mg/kg Dox =
Normal ICR mice; single intravenous bolus, 49 days
  dose groups with toxicity (partial hind-end paralysis, body weight loss >20%): ≥ 94 mg/kg
[5]; [7]
  equivalent dose of doxorubicin safely administered: 66 mg/kg
  fold higher than possible with doxorubicin alone: approximately 8 fold
[5]; intravenous 23-117 mg/kg
  mortalities over the 28-day study: no mortalities
[5]; intravenous, mice, 28-day study, first experiment, doses as first stated
  single-dose MTD: greater than 117 mg/kg
[5]; [8]
  equivalent dose of doxorubicin safely administered: 70 mg/kg
  fold higher than possible with doxorubicin alone: approximately 3.3 fold
[5]; repeated experiment
  single dose MTD, fold higher than doxorubicin alone: at least 1.2 fold
[6]
  Plasma 1 hr, percent of administered dose: 1.49%
  Urine 2 hr, percent of administered dose: 9.31%
  Urine 24 hr, percent of administered dose: 2.11%
[6]; female, mouse, in vivo, read-out: Urine 2 hr, percent of administered dose
  dose excreted at 2 h: 9.31%
